B1: rat single-chain tPA with arginine to serine point mutation at position 276 (R276S), 6xHis-tagged (enzyme)
chain: HHHHHHSYRATCRDEQTQTTYQQHQSWLRPMLRGNRVEYCRCNSGLAQCHSVPVRSCSEPRCFNGGTCQQALYFSDFVCQCPDGFVGKRCDIDTRATCFEGQGITYRGTWSTAENGAECINWNSSALSQKPYSARRPNAIKLGLGNHNYCRNPDRDVRPWCYVFKAGKYTTEFCSTPACPKGPTEDCYVGKGVTYRGTHSFTTSKASCLPWNSMILIGKTYTAWRANSQALGLGRHNYCRNPDGDAKPWCHVMKDRKLTWEYCDMSPCSTCGLRQYKQPLFSIKGGLFTDITSHPWQAAIFVKNKRSPGERFLCGGVLISSCWVLSAAHCFVERFPPHHLKVVLGRTYRVVPGEEEQTFEIEKYIVHKEFDDDTYDNDIALLQLRSDSSQCAQESSSVGTACLPDPDVQLPDWTECELSGYGKHEASSPFFSDRLKEAHVRLYPSSRCTSQHLFNKTITSNMLCAGDTRTGGNQDVHDACQGDSGGPLVCMIDKRMTLLGIISWGLGCGQKDVPGIYTKVTNYLNWIQDNMKQ
notes: Present only in its single-chain form; also called sc*-tPA; rat sc*-tPA
B2: rat tPA with tryptophan to arginine point mutation at position 254 (W254R), 6xHis-tagged (enzyme)
chain: B1 chain with W260R, S282R
notes: also called K2*-tPA; tPA W254R
B3: fibrin (other)
chain 1: GPRVVERHQSACKDSDWPFCSDEDWNYKCPSGCRMKGLIDEVNQDFTNRINKLKNSLFEYQKNNKDSHSLTTNIMEILRGDFSSANNRDNTYNRVSEDLRSRIEVLKRKVIEKVQHIQLLQKNVRAQLVDMKRLEVDIDIKIRSCRGSCSRALAREVDLKDYEDQQKQLEQVIAKDLLPSRDRQHLPLIKMKPVPDLVPGNFKSQLQKVPPEWKALTDMPQMRMELERPGGNEITRGGSTSYGTGSETESPRNPSSAGSWNSGSSGPGSTGNRNPGSSGTGGTATWKPGSSGPGSTGSWNSGSSGTGSTGNQNPGSPRPGSTGTWNPGSSERGSAGHWTSESSVSGSTGQWHSESGSFRPDSPGSGNARPNNPDWGTFEEVSGNVSPGTRREYHTEKLVTSKGDKELRTGKEKVTSGSTTTTRRSCSKTVTKTVIGPDGHKEVTKEVVTSEDGSDCPEAMDLGTLSGIGTLDGFRHRHPDEAAFFDTASTGKTFPGFFSPMLGEFVSETESRGSESGIFTNTKESSSHHPGIAEFPSRGKSSSYSKQFTSSTSYNRGDSTFESKSYKMADEAGSEADHEGTHSTKRGHAKSRPV
chain 2: GHRPLDKKREEAPSLRPAPPPISGGGYRARPAKAAATQKKVERKAPDAGGCLHADPDLGVLCPTGCQLQEALLQQERPIRNSVDELNNNVEAVSQTSSSSFQYMYLLKDLWQKRQKQVKDNENVVNEYSSELEKHQLYIDETVNSNIPTNLRVLRSILENLRSKIQKLESDVSAQMEYCRTPCTVSCNIPVVSGKECEEIIRKGGETSEMYLIQPDSSVKPYRVYCDMNTENGGWTVIQNRQDGSVDFGRKWDPYKQGFGNVATNTDGKNYCGLPGEYWLGNDKISQLTRMGPTELLIEMEDWKGDKVKAHYGGFTVQNEANKYQISVNKYRGTAGNALMDGASQLMGENRTMTIHNGMFFSTYDRDNDGWLTSDPRKQCSKEDGGGWWYNRCHAANPNGRYYWGGQYTWDMAKHGTDDGVVWMNWKGSWYSMRKMSMKIRPFFPQQ
chain 3: YVATRDNCCILDERFGSYCPTTCGIADFLSTYQTKVDKDLQSLEDILHQVENKTSEVKQLIKAIQLTYNPDESSKPNMIDAATLKSRKMLEEIMKYEASILTHDSSIRYLQEIYNSNNQKIVNLKEKVAQLEAQCQEPCKDTVQIHDITGKDCQDIANKGAKQSGLYFIKPLKANQQFLVYCEIDGSGNGWTVFQKRLDGSVDFKKNWIQYKEGFGHLSPTGTTEFWLGNEKIHLISTQSAIPYALRVELEDWNGRTSTADYAMFKVGPEADKYRLTYAYFAGGDAGDAFDGFDFGDDPSDKFFTSHNGMQFSTWDNDNDKFEGNCAEQDGSGWWMNKCHAGHLNGVYYQGGTYSKASTPNGYDNGIIWATWKTRWYSMKKTTMKIIPFNRLTIGEGQQHHLGGAKQVRPE
B4: human tPA containing the triple mutation P125R W253R R275S, 6xHis tag and linker at the N-terminus (enzyme)
chain: HHHHHHGSSYQVICRDEKTQMIYQQHQSWLRPVLRSNRVEYCWCNSGRAQCHSVPVKSCSEPRCFNGGTCQQALYFSDFVCQCPEGFAGKCCEIDTRATCYEDQGISYRGTWSTAESGAECTNWNSSALAQKRYSGRRPDAIRLGLGNHNYCRNPDRDSKPWCYVFKAGKYSSEFCSTPACSEGNSDCYFGNGSAYRGTHSLTESGASCLPWNSMILIGKVYTAQNPSAQALGLGKHNYCRNPDGDAKPWCHVLKNRRLTREYCDVPSCSTCGLRQYSQPQFSIKGGLFADIASHPWQAAIFAKHRRSPGERFLCGGILISSCWILSAAHCFQERFPPHHLTVILGRTYRVVPGEEEQKFEVEKYIVHKEFDDDTYDNDIALLQLKSDSSRCAQESSVVRTVCLPPADLQLPDWTECELSGYGKHEALSPFYSERLKEAHVRLYPSSRCTSQHLLNRTVTDNMLCAGDTRSGGPQANLHDACQGDSGGPLVCLNDGRMTLVGIISWGLGCGQKDVPGVYTKVTNYLDWIRDNMRP
B5: human single-chain tPA with arginine to serine point mutation at position 275 (R275S), 6xHis tag and linker at the N-terminus (enzyme)
chain: B4 chain with R133P, R261W
B6: human tPA containing a tryptophan to arginine point mutation at position 253 (W253R), 6xHis tag and linker at the N-terminus (enzyme)
chain: B4 chain with R133P, S283R
B7: human tPA containing the double mutation W253R R275S, 6xHis tag and linker at the N-terminus (enzyme)
chain: B4 chain with R133P

The target in assay [1] is B3. Briefly: binding of tPA variants to a solid-phase fibrin surface on PVC plates (3 independent experiments, 12 doses).
Assay [2] concerns the target T1, rat wild type tPA (Rattus norvegicus), 6xHis-tagged (rat, UniProt P19637 33-559).
T1 construct: mature; Produced in HEK-293 cells and purified on Ni-NTA; also called wt-tPA; rat wt-tPA
The assay is described as above.

In assay [3] the target is N-methyl-D-aspartate receptor on primary cultured mouse cortical neurons (mouse, UniProt P35438 19-938). Description: cell-based or functional assay.

Substitutions are numbered along the chain they refer to. Numbers in names are those of the source.

The molecule B1 gave a Kd in assay [1] of 1.2 nM.
In assay [1], B2 had a Kd of 0.5 nM.
In turn, B3 showed a Kd in assay [2] of 0.26 nM.
Take B4: the “neuronal cell death (LDH release, cortical neurons, 0.3 uM)” value (“neuronal cell death” for short) in assay [3] is 51%.
With B5, the “neuronal cell death” value in assay [3] amounted to 62%.
B6: the “neuronal cell death” value in assay [3] turned out to be 64%.
Consider B7, for which the “neuronal cell death” value in assay [3] stood at 62%.

In general, Kd refers to a measure of binding affinity in units of concentration. High values mean lower affinity, low ones higher affinity.

Values taken from US20140212406A1 (INSTITUT NATIONAL DE LA SANTE ET DE LA RECHERCHE MEDICALE …, published 2014).
